± gives the standard deviation of the averaged measurements.
Experiment: total protein half-life in vivo (active degradation + dilution); higher = more stable protein
[1] = wild type E. coli NCM3722, growth: C-lim chemostat, doubling time 3 h
[2] = wild type E. coli NCM3722, growth: P-lim chemostat, doubling time 12 h
[3] = E. coli NCM3722 delta-clpP delta-lon delta-hslV, growth: N-lim chemostat, doubling time 6 h
[4] = E. coli NCM3722 delta-clpP, growth: N-lim chemostat, doubling time 6 h
[5] = E. coli NCM3722 delta-hslV, growth: N-lim chemostat, doubling time 6 h
[6] = E. coli NCM3722 delta-lon, growth: N-lim chemostat, doubling time 6 h
[7] = E. coli NCM3722 delta-smpB, growth: N-lim chemostat, doubling time 6 h
[8] = wild type E. coli NCM3722, growth: C-lim chemostat, doubling time 6 h
[9] = wild type E. coli NCM3722, growth: C-lim chemostat, doubling time 12 h
[10] = wild type E. coli NCM3722, growth: N-lim chemostat, doubling time 6 h
[11] = wild type E. coli NCM3722, growth: N-lim chemostat, doubling time 12 h
[12] = wild type E. coli NCM3722, growth: P-lim chemostat, doubling time 6 h

Q: Which “total protein half-life in vivo” value [1] does the source give for “MRVLIKNGTVVNADGQAKQDLLIESGIVRQLGNNISPQLPYEEIDATGCYVFPGGVDVHTHFNIDVGIARSCDDFFTGTRAAACGGTTTIIDHMGFGPNGCRLRHQLEVYRGYAAHKAVIDYSFHGVIQHINHAILDEIPMIVEEGLSSFKLYLTYQYKLNDDEVLQALRRLHESGALTTVHPENDAAIASKRAEFIAAGLTAPRYHALSRPLECEAEAIARMINLAQIAGNAPLYIVHLSNGLGLDYLRLARANHQPVWVETCPQYLLLDERSYDTEDGMKFILSPPLRNVREQDKLWCGISDGAIDVVATDHCTFSMAQRLQISKGDFSRCPNGLPGVENRMQLLFSSGVMTGRITPERFVELTSAMPARLFGLWPQKGLLAPGSDGDVVIIDPRQSQQIQHRHLHDNADYSPWEGFTCQGAIVRTLSRGETIFCDGTFTGKAGRGRFLRRKPFVPPVL” here?
A: > 4 h

Q: What about the “total protein half-life in vivo” value [2] of the same sequence?
A: 12.1 h

Q: For “MLRIADKTFDSHLFTGTGKFASSQLMVEAIRASGSQLVTLAMKRVDLRQHNDAILEPLIAAGVTLLPNTSGAKTAEEAIFAAHLAREALGTNWLKLEIHPDARWLLPDPIETLKAAETLVQQGFVVLPYCGADPVLCKRLEEVGCAAVMPLGAPIGSNQGLETRAMLEIIIQQATVPVVVDAGIGVPSHAAQALEMGADAVLVNTAIAVADDPVNMAKAFRLAVEAGLLARQSGPGSRSYFAHATSPLTGFLEASA”, which “total protein half-life in vivo” value [3] is on record?
A: 2.21 ± 0.21 h

Q: What about the “total protein half-life in vivo” value [4] of the same sequence?
A: 1.09 ± 0.22 h

Q: And the “total protein half-life in vivo” value [5]?
A: 0.8075 ± 0.0064 h

Q: What about the “total protein half-life in vivo” value [6] of the same sequence?
A: 1.093 ± 0.0074 h

Q: What about the “total protein half-life in vivo” value [7] of the same sequence?
A: 0.844 ± 0.015 h

Q: What about the “total protein half-life in vivo” value [1] of the same sequence?
A: 1.59 ± 0.079 h

Q: What about the “total protein half-life in vivo” value [8] of the same sequence?
A: 1.61 ± 0.17 h

Q: What about the “total protein half-life in vivo” value [9] of the same sequence?
A: 1.81 ± 0.88 h

Q: And the “total protein half-life in vivo” value [10]?
A: 0.928 ± 0.09 h

Q: What about the “total protein half-life in vivo” value [11] of the same sequence?
A: 1.067 ± 0.0049 h

Q: And the “total protein half-life in vivo” value [12]?
A: 2.01 ± 0.17 h

Q: What about the “total protein half-life in vivo” value [2] of the same sequence?
A: 3.07 ± 0.59 h

Q: Which results are given for “MSEQLTDQVLVERVQKGDQKAFNLLVVRYQHKVASLVSRYVPSGDVPDVVQEAFIKAYRALDSFRGDSAFYTWLYRIAVNTAKNYLVAQGRRPPSSDVDAIEAENFESGGALKEISNPENLMLSEELRQIVFRTIESLPEDLRMAITLRELDGLSYEEIAAIMDCPVGTVRSRIFRAREAIDNKVQPLIRR [P0AGB6]”?
A: total protein half-life in vivo [3]: 5.283 ± 0.0063 h; total protein half-life in vivo [4]: 6.37 ± 0.46 h; total protein half-life in vivo [5]: 6.86 ± 0.17 h; total protein half-life in vivo [6]: 7.1 ± 0.53 h; total protein half-life in vivo [7]: 6.14 ± 0.71 h; total protein half-life in vivo [1]: 3.49 ± 0.3 h; total protein half-life in vivo [8]: 5.85 ± 0.13 h; total protein half-life in vivo [9]: 11.8 ± 1.1 h; total protein half-life in vivo [10]: 5.76 ± 0.9 h; total protein half-life in vivo [11]: 11.3 ± 1.4 h; total protein half-life in vivo [12]: 5.63 ± 0.5 h; total protein half-life in vivo [2]: 12.6 ± 0.15 h

Q: With “MMQPSIKPADEHSAGDIIARIGSLTRMLRDSLRELGLDQAIAEAAEAIPDARDRLYYVVQMTAQAAERALNSVEASQPHQDQMEKSAKALTQRWDDWFADPIDLADARELVTDTRQFLADVPAHTSFTNAQLLEIMMAQDFQDLTGQVIKRMMDVIQEIERQLLMVLLENIPEQESRPKRENQSLLNGPQVDTSKAGVVASQDQVDDLLDSLGF [P0A9H9]” as the sequence, how does the “total protein half-life in vivo” value [9] read?
A: 2.6 h

Q: Which “total protein half-life in vivo” value [3] does the source give for “MNNMNVIIADDHPIVLFGIRKSLEQIEWVNVVGEFEDSTALINNLPKLDAHVLITDLSMPGDKYGDGITLIKYIKRHFPSLSIIVLTMNNNPAILSAVLDLDIEGIVLKQGAPTDLPKALAALQKGKKFTPESVSRLLEKISAGGYGDKRLSPKESEVLRLFAEGFLVTEIAKKLNRSIKTISSQKKSAMMKLGVENDIALLNYLSSVTLSPADKD [P0DMC7]” here?
A: 5.91 ± 1.9 h

Q: And the “total protein half-life in vivo” value [4]?
A: 4.22 ± 1.2 h

Q: And the “total protein half-life in vivo” value [5]?
A: 2.69 ± 0.2 h

Q: What about the “total protein half-life in vivo” value [6] of the same sequence?
A: 3.758 ± 0.014 h

Q: What about the “total protein half-life in vivo” value [7] of the same sequence?
A: 2.9 ± 0.3 h

Q: And the “total protein half-life in vivo” value [1]?
A: 2.71 ± 0.096 h

Q: And the “total protein half-life in vivo” value [8]?
A: 4.35 ± 0.097 h

Q: What about the “total protein half-life in vivo” value [9] of the same sequence?
A: 6.66 ± 1.3 h

Q: What about the “total protein half-life in vivo” value [10] of the same sequence?
A: 3.01 ± 0.38 h

Q: And the “total protein half-life in vivo” value [11]?
A: 4.16 ± 0.46 h

Q: And the “total protein half-life in vivo” value [12]?
A: 3.42 ± 0.59 h

Q: What about the “total protein half-life in vivo” value [2] of the same sequence?
A: 5.56 ± 0.093 h

Q: What does the source list for “MSRIIMLIPTGTSVGLTSVSLGVIRAMERKGVRLSVFKPIAQPRTGGDAPDQTTTIVRANSSTTTAAEPLKMSYVEGLLSSNQKDVLMEEIVANYHANTKDAEVVLVEGLVPTRKHQFAQSLNYEIAKTLNAEIVFVMSQGTDTPEQLKERIELTRNSFGGAKNTNITGVIVNKLNAPVDEQGRTRPDLSEIFDDSSKAKVNNVDPAKLQESSPLPVLGAVPWSFDLIATRAIDMARHLNATIINEGDINTRRVKSVTFCARSIPHMLEHFRAGSLLVTSADRPDVLVAACLAAMNGVEIGALLLTGGYEMDARISKLCERAFATGLPVFMVNTNTWQTSLSLQSFNLEVPVDDHERIEKVQEYVANYINADWIESLTATSERSRRLSPPAFRYQLTELARKAGKRIVLPEGDEPRTVKAAAICAERGIATCVLLGNPAEINRVAASQGVELGAGIEIVDPEVVRESYVGRLVELRKNKGMTETVAREQLEDNVVLGTLMLEQDEVDGLVSGAVHTTANTIRPPLQLIKTAPGSSLVSSVFFMLLPEQVYVYGDCAINPDPTAEQLAEIAIQSADSAAAFGIEPRVAMLSYSTGTSGAGSDVEKVREATRLAQEKRPDLMIDGPLQYDAAVMADVAKSKAPNSPVAGRATVFIFPDLNTGNTTYKAVQRSADLISIGPMLQGMRKPVNDLSRGALVDDIVYTIALTAIQSAQQQ [P0A9M8]”?
A: total protein half-life in vivo [3]: 6.116 ± 0.01 h; total protein half-life in vivo [4]: 5.89 ± 0.68 h; total protein half-life in vivo [5]: 6.22 ± 0.38 h; total protein half-life in vivo [6]: 6.08 ± 0.32 h; total protein half-life in vivo [7]: 5.973 ± 0.042 h; total protein half-life in vivo [1]: 3.14 ± 0.039 h; total protein half-life in vivo [8]: 5.61 ± 0.24 h; total protein half-life in vivo [9]: 11 ± 0.26 h; total protein half-life in vivo [10]: 6.14 ± 0.12 h; total protein half-life in vivo [11]: 11.99 ± 0.054 h; total protein half-life in vivo [12]: 6.32 ± 0.58 h; total protein half-life in vivo [2]: 11.8 ± 0.43 h

Q: With “MQQPVVRVGEWLVTPSINQISRNGRQLTLEPRLIDLLVFFAQHSGEVLSRDELIDNVWKRSIVTNHVVTQSISELRKSLKDNDEDSPVYIATVPKRGYKLMVPVIWYSEEEGEEIMLSSPPPIPEAVPATDSPSHSLNIQNTATPPEQSPVKSKRFTTFWVWFFFLLSLGICVALVAFSSLDTRLPMSKSRILLNPRDIDINMVNKSCNSWSSPYQLSYAIGVGDLVATSLNTFSTFMVHDKINYNIDEPSSSGKTLSIAFVNQRQYRAQQCFMSIKLVDNADGSTMLDKRYVITNGNQLAIQNDLLESLSKALNQPWPQRMQETLQKILPHRGALLTNFYQAHDYLLHGDDKSLNRASELLGEIVQSSPEFTYARAEKALVDIVRHSQHPLDEKQLAALNTEIDNIVTLPELNNLSIIYQIKAVSALVKGKTDESYQAINTGIDLEMSWLNYVLLGKVYEMKGMNREAADAYLTAFNLRPGANTLYWIENGIFQTSVPYVVPYLDKFLASE” as the sequence, how does the “total protein half-life in vivo” value [3] read?
A: 5.6 ± 0.59 h

Q: And the “total protein half-life in vivo” value [4]?
A: 5.47 ± 0.86 h

Q: And the “total protein half-life in vivo” value [5]?
A: 5.65 ± 0.78 h

Q: What about the “total protein half-life in vivo” value [7] of the same sequence?
A: 5.484 ± 0.022 h

Q: What about the “total protein half-life in vivo” value [10] of the same sequence?
A: 5.06 ± 0.32 h

Q: And the “total protein half-life in vivo” value [11]?
A: 12.73 ± 0.03 h

Q: What about the “total protein half-life in vivo” value [12] of the same sequence?
A: 6.18 ± 0.23 h

Q: What about the “total protein half-life in vivo” value [2] of the same sequence?
A: 12.08 ± 0.11 h

Q: With “MARKWLNLFAGAALSFAVAGNALADEGKITVFAAASLTNAMQDIATQFKKEKGVDVVSSFASSSTLARQIEAGAPADLFISADQKWMDYAVDKKAIDTATRQTLLGNSLVVVAPKASVQKDFTIDSKTNWTSLLNGGRLAVGDPEHVPAGIYAKEALQKLGAWDTLSPKLAPAEDVRGALALVERNEAPLGIVYGSDAVASKGVKVVATFPEDSHKKVEYPVAVVEGHNNATVKAFYDYLKGPQAAEIFKRYGFTIK” as the sequence, how does the “total protein half-life in vivo” value [3] read?
A: 5.7 ± 0.29 h

Q: What about the “total protein half-life in vivo” value [4] of the same sequence?
A: 5.9 ± 0.53 h

Q: What about the “total protein half-life in vivo” value [5] of the same sequence?
A: 6.46 ± 0.2 h

Q: What about the “total protein half-life in vivo” value [6] of the same sequence?
A: 6.16 ± 0.47 h

Q: And the “total protein half-life in vivo” value [7]?
A: 6.39 ± 0.36 h

Q: What about the “total protein half-life in vivo” value [1] of the same sequence?
A: 2.87 ± 0.23 h

Q: What about the “total protein half-life in vivo” value [8] of the same sequence?
A: 6.01 ± 0.3 h

Q: What about the “total protein half-life in vivo” value [9] of the same sequence?
A: 12.8 ± 0.23 h

Q: What about the “total protein half-life in vivo” value [10] of the same sequence?
A: 5.9 ± 0.19 h

Q: And the “total protein half-life in vivo” value [11]?
A: 12.7 ± 0.75 h

Q: What about the “total protein half-life in vivo” value [12] of the same sequence?
A: 6.64 ± 0.41 h

Q: And the “total protein half-life in vivo” value [2]?
A: 13.7 ± 0.95 h
